Target: T1, GST-tagged human HSF1 (human, UniProt Q00613 1-529)
T1 construct: Heat shock factor 1 (HSF1), human (hHSF1); The authors surmise that GST dimers induce HSF1 oligomerisation; also called GST-HSF1; GST-hHSF1
T1 sequence (looked up): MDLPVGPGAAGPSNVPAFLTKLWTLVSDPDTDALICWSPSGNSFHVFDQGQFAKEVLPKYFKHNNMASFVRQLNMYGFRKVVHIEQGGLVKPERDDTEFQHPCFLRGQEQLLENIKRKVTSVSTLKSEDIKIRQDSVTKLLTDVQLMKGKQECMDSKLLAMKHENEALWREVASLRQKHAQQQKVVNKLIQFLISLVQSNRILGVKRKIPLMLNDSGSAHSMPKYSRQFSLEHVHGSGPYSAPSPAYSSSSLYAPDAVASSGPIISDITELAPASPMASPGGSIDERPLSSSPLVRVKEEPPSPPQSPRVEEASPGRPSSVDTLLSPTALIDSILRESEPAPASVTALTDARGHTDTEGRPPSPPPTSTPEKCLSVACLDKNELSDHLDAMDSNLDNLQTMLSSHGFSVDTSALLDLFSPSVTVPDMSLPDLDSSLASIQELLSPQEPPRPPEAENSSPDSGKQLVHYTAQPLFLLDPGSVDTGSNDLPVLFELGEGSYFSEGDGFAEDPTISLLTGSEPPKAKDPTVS
Test: pull-down; GST or GST-hHSF1 on glutathione-agarose beads incubated with purified His-Arc in 20 mM MOPS pH 7.2, 100 mM KCl, 0.5% Tween, 2 μg/mL aprotinin, 3 h at 4°C; Western analysis with anti-GST and anti-Arc; with and without heat shock treatment
Conditions: both partners purified

binding result: binds
B1: His-tagged human Arc/Arg3.1 (natural protein, UniProt Q7LC44 1-396, looked up)
chain: MELDHRTSGGLHAYPGPRGGQVAKPNVILQIGKCRAEMLEHVRRTHRHLLAEVSKQVERELKGLHRSVGKLESNLDGYVPTSDSQRWKKSIKACLCRCQETIANLERWVKREMHVWREVFYRLERWADRLESTGGKYPVGSESARHTVSVGVGGPESYCHEADGYDYTVSPYAITPPPAAGELPGQEPAEAQQYQPWVPGEDGQPSPGVDTQIFEDPREFLSHLEEYLRQVGGSEEYWLSQIQNHMNGPAKKWWEFKQGSVKNWVEFKKEFLQYSEGTLSREAIQRELDLPQKQGEPLDQFLWRKRDLYQTLYVDADEEEIIQYVVGTLQPKLKRFLRHPLPKTLEQLIQRGMEVQDDLEQAAEPAGPHLPVEDEAETLTPAPNSESVASDRTQPE
notes: Arc/Arg3.1 (activity-regulated cytoskeleton-associated protein), human (hArc/Arg3.1); The construct and its purification are not described in the methods; also called His-Arc; His-Arc/Arg3.1; source: purified

From article PMC6385231, “Activity-Regulated Cytoskeleton-Associated Protein (Arc/Arg3.1) is Transiently Expressed after Heat Shock Stress and Suppresses Heat Shock Factor 1” (Scientific Reports, 2019)
